The record followed here is patent US20110118181A1 (INSTITUT DE RECHERHES CLINIQUES DE MONTREAL, published 2011).

The target in the assay is T1, PCSK9-V5 (full-length human PCSK9 with C-terminal V5 tag) (human, UniProt Q8NBP7 31-692).
T1 construct: Used as conditioned medium of CHO-K1 cells (Far Western, pull-down) or co-expressed in cells (co-IP); The background says PCSK9 is secreted as a prosegment-PCSK9 heterodimer; also called full-length (FL) PCSK9-V5; native PCSK9; not shown: C-terminal V5 tag
T1 sequence (Q8NBP7 31-692 limits assumed): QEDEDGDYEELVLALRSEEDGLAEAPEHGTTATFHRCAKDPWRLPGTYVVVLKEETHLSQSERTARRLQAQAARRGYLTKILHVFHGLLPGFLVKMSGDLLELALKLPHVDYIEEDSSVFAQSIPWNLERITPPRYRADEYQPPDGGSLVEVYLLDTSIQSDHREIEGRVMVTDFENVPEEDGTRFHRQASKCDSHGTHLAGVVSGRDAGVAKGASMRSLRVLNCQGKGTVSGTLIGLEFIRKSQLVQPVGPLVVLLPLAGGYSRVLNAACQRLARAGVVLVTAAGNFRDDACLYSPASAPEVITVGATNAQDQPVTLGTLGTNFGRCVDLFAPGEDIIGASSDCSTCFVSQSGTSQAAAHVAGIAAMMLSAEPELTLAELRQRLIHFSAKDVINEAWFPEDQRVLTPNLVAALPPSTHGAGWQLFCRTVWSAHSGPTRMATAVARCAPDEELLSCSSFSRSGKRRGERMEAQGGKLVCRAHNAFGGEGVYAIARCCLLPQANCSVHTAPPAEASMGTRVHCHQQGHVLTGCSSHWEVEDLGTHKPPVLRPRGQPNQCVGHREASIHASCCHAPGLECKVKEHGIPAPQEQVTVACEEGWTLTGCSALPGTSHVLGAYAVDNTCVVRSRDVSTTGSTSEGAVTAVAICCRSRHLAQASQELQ
In words: Far Western blot of HEK293 lysates.

B1: AnxA2 77RRTKK>AATAA (HA-tagged) (other)
chain: MSTVHEILCKLSLEGDHSTPPSAYGSVKAYTNFDAERDALNIETAIKTKGVDEVTIVNILTNRSNAQRQDIAFAYQAATAAELASALKSALSGHLETVILGLLKTPAQYDASELKASMKGLGTDEDSLIEIICSRTNQELQEINRVYKEMYKTDLEKDIISDTSGDFRKLMVALAKGRRAEDGSVIDYELIDQDARDLYDAGVKRKGTDVPKWISIMTERSVPHLQKVFDRYKSYSPYDMLESIRKEVKGDLENAFLNLVQCIQNKPLYFADRLYDSMKGKGTRDKVLIRIMVSRSEVDMLKIRSEFKRKYGKSLYYYIQQDTKGDYQKALLYLCGGDDYPYDVPDYA
notes: also called 77AATAA81
As to B1, the binding result is given as “no binding”.

B2: AnxA2 80KKELA>GKPLD (HA-tagged) (other)
chain: MSTVHEILCKLSLEGDHSTPPSAYGSVKAYTNFDAERDALNIETAIKTKGVDEVTIVNILTNRSNAQRQDIAFAYQRRTGKPLDSALKSALSGHLETVILGLLKTPAQYDASELKASMKGLGTDEDSLIEIICSRTNQELQEINRVYKEMYKTDLEKDIISDTSGDFRKLMVALAKGRRAEDGSVIDYELIDQDARDLYDAGVKRKGTDVPKWISIMTERSVPHLQKVFDRYKSYSPYDMLESIRKEVKGDLENAFLNLVQCIQNKPLYFADRLYDSMKGKGTRDKVLIRIMVSRSEVDMLKIRSEFKRKYGKSLYYYIQQDTKGDYQKALLYLCGGDDYPYDVPDYA
notes: also called 80KKELA84 replaced with AnxA1 loop 89GKPLD93
In the case of B2, the binding result was “binds”.

B3: AnxA2 Δ37-48-HA (other)
chain: MSTVHEILCKLSLEGDHSTPPSAYGSVKAYTNFDAEKGVDEVTIVNILTNRSNAQRQDIAFAYQRRTKKELASALKSALSGHLETVILGLLKTPAQYDASELKASMKGLGTDEDSLIEIICSRTNQELQEINRVYKEMYKTDLEKDIISDTSGDFRKLMVALAKGRRAEDGSVIDYELIDQDARDLYDAGVKRKGTDVPKWISIMTERSVPHLQKVFDRYKSYSPYDMLESIRKEVKGDLENAFLNLVQCIQNKPLYFADRLYDSMKGKGTRDKVLIRIMVSRSEVDMLKIRSEFKRKYGKSLYYYIQQDTKGDYQKALLYLCGGDDYPYDVPDYA
B3: the binding result is “no binding”.

B4: AnxA2 77RRTKK>AATAK (HA-tagged) (other)
chain: MSTVHEILCKLSLEGDHSTPPSAYGSVKAYTNFDAERDALNIETAIKTKGVDEVTIVNILTNRSNAQRQDIAFAYQAATAKELASALKSALSGHLETVILGLLKTPAQYDASELKASMKGLGTDEDSLIEIICSRTNQELQEINRVYKEMYKTDLEKDIISDTSGDFRKLMVALAKGRRAEDGSVIDYELIDQDARDLYDAGVKRKGTDVPKWISIMTERSVPHLQKVFDRYKSYSPYDMLESIRKEVKGDLENAFLNLVQCIQNKPLYFADRLYDSMKGKGTRDKVLIRIMVSRSEVDMLKIRSEFKRKYGKSLYYYIQQDTKGDYQKALLYLCGGDDYPYDVPDYA
notes: also called 77AATAK81
For the molecule B4, the binding result is on record as “no binding”.

B5: AnxA2 Δ82-88-HA (other)
chain: MSTVHEILCKLSLEGDHSTPPSAYGSVKAYTNFDAERDALNIETAIKTKGVDEVTIVNILTNRSNAQRQDIAFAYQRRTKKSALSGHLETVILGLLKTPAQYDASELKASMKGLGTDEDSLIEIICSRTNQELQEINRVYKEMYKTDLEKDIISDTSGDFRKLMVALAKGRRAEDGSVIDYELIDQDARDLYDAGVKRKGTDVPKWISIMTERSVPHLQKVFDRYKSYSPYDMLESIRKEVKGDLENAFLNLVQCIQNKPLYFADRLYDSMKGKGTRDKVLIRIMVSRSEVDMLKIRSEFKRKYGKSLYYYIQQDTKGDYQKALLYLCGGDDYPYDVPDYA
B5: the binding result is given as “no binding”.

B6: AnxA2 77…>77AATAAELASALA (HA-tagged) (other)
chain: MSTVHEILCKLSLEGDHSTPPSAYGSVKAYTNFDAERDALNIETAIKTKGVDEVTIVNILTNRSNAQRQDIAFAYQAATAAELASALASALSGHLETVILGLLKTPAQYDASELKASMKGLGTDEDSLIEIICSRTNQELQEINRVYKEMYKTDLEKDIISDTSGDFRKLMVALAKGRRAEDGSVIDYELIDQDARDLYDAGVKRKGTDVPKWISIMTERSVPHLQKVFDRYKSYSPYDMLESIRKEVKGDLENAFLNLVQCIQNKPLYFADRLYDSMKGKGTRDKVLIRIMVSRSEVDMLKIRSEFKRKYGKSLYYYIQQDTKGDYQKALLYLCGGDDYPYDVPDYA
For B6, the binding result was “no binding”.

B7: AnxA2 Δ25-36-HA (other)
chain: MSTVHEILCKLSLEGDHSTPPSAYRDALNIETAIKTKGVDEVTIVNILTNRSNAQRQDIAFAYQRRTKKELASALKSALSGHLETVILGLLKTPAQYDASELKASMKGLGTDEDSLIEIICSRTNQELQEINRVYKEMYKTDLEKDIISDTSGDFRKLMVALAKGRRAEDGSVIDYELIDQDARDLYDAGVKRKGTDVPKWISIMTERSVPHLQKVFDRYKSYSPYDMLESIRKEVKGDLENAFLNLVQCIQNKPLYFADRLYDSMKGKGTRDKVLIRIMVSRSEVDMLKIRSEFKRKYGKSLYYYIQQDTKGDYQKALLYLCGGDDYPYDVPDYA
As to B7, the binding result was “no binding”.

B8: AnxA2 Δ89-101-HA (other)
chain: MSTVHEILCKLSLEGDHSTPPSAYGSVKAYTNFDAERDALNIETAIKTKGVDEVTIVNILTNRSNAQRQDIAFAYQRRTKKELASALKLLKTPAQYDASELKASMKGLGTDEDSLIEIICSRTNQELQEINRVYKEMYKTDLEKDIISDTSGDFRKLMVALAKGRRAEDGSVIDYELIDQDARDLYDAGVKRKGTDVPKWISIMTERSVPHLQKVFDRYKSYSPYDMLESIRKEVKGDLENAFLNLVQCIQNKPLYFADRLYDSMKGKGTRDKVLIRIMVSRSEVDMLKIRSEFKRKYGKSLYYYIQQDTKGDYQKALLYLCGGDDYPYDVPDYA
As for B8, the binding result is on record as “no binding”.

B9: AnxA2 K28S+D34N+E36S (HA-tagged) (other)
chain: MSTVHEILCKLSLEGDHSTPPSAYGSVSAYTNFNASRDALNIETAIKTKGVDEVTIVNILTNRSNAQRQDIAFAYQRRTKKELASALKSALSGHLETVILGLLKTPAQYDASELKASMKGLGTDEDSLIEIICSRTNQELQEINRVYKEMYKTDLEKDIISDTSGDFRKLMVALAKGRRAEDGSVIDYELIDQDARDLYDAGVKRKGTDVPKWISIMTERSVPHLQKVFDRYKSYSPYDMLESIRKEVKGDLENAFLNLVQCIQNKPLYFADRLYDSMKGKGTRDKVLIRIMVSRSEVDMLKIRSEFKRKYGKSLYYYIQQDTKGDYQKALLYLCGGDDYPYDVPDYA
As for B9, the binding result was “binds”.

B10: AnxA2 ΔR1-HA (deletion of aa 37-108) (other)
chain: MSTVHEILCKLSLEGDHSTPPSAYGSVKAYTNFDAEYDASELKASMKGLGTDEDSLIEIICSRTNQELQEINRVYKEMYKTDLEKDIISDTSGDFRKLMVALAKGRRAEDGSVIDYELIDQDARDLYDAGVKRKGTDVPKWISIMTERSVPHLQKVFDRYKSYSPYDMLESIRKEVKGDLENAFLNLVQCIQNKPLYFADRLYDSMKGKGTRDKVLIRIMVSRSEVDMLKIRSEFKRKYGKSLYYYIQQDTKGDYQKALLYLCGGDDYPYDVPDYA
notes: also called Δ37-108 (R1)
In the case of B10, the binding result was “no binding”.

B11: AnxA2 Δ49-61-HA (other)
chain: MSTVHEILCKLSLEGDHSTPPSAYGSVKAYTNFDAERDALNIETAIKTNRSNAQRQDIAFAYQRRTKKELASALKSALSGHLETVILGLLKTPAQYDASELKASMKGLGTDEDSLIEIICSRTNQELQEINRVYKEMYKTDLEKDIISDTSGDFRKLMVALAKGRRAEDGSVIDYELIDQDARDLYDAGVKRKGTDVPKWISIMTERSVPHLQKVFDRYKSYSPYDMLESIRKEVKGDLENAFLNLVQCIQNKPLYFADRLYDSMKGKGTRDKVLIRIMVSRSEVDMLKIRSEFKRKYGKSLYYYIQQDTKGDYQKALLYLCGGDDYPYDVPDYA
B11: the binding result is listed as “no binding”.

B12: AnxA2 Δ62-75-HA (other)
chain: MSTVHEILCKLSLEGDHSTPPSAYGSVKAYTNFDAERDALNIETAIKTKGVDEVTIVNILTQRRTKKELASALKSALSGHLETVILGLLKTPAQYDASELKASMKGLGTDEDSLIEIICSRTNQELQEINRVYKEMYKTDLEKDIISDTSGDFRKLMVALAKGRRAEDGSVIDYELIDQDARDLYDAGVKRKGTDVPKWISIMTERSVPHLQKVFDRYKSYSPYDMLESIRKEVKGDLENAFLNLVQCIQNKPLYFADRLYDSMKGKGTRDKVLIRIMVSRSEVDMLKIRSEFKRKYGKSLYYYIQQDTKGDYQKALLYLCGGDDYPYDVPDYA
For the molecule B12, the binding result is “no binding”.

B13: AnxA2 Δ102-108-HA (other)
chain: MSTVHEILCKLSLEGDHSTPPSAYGSVKAYTNFDAERDALNIETAIKTKGVDEVTIVNILTNRSNAQRQDIAFAYQRRTKKELASALKSALSGHLETVILGYDASELKASMKGLGTDEDSLIEIICSRTNQELQEINRVYKEMYKTDLEKDIISDTSGDFRKLMVALAKGRRAEDGSVIDYELIDQDARDLYDAGVKRKGTDVPKWISIMTERSVPHLQKVFDRYKSYSPYDMLESIRKEVKGDLENAFLNLVQCIQNKPLYFADRLYDSMKGKGTRDKVLIRIMVSRSEVDMLKIRSEFKRKYGKSLYYYIQQDTKGDYQKALLYLCGGDDYPYDVPDYA
As for B13, the binding result is reported as “no binding”.

B14: AnxA2 Δ74-88-HA (other)
chain: MSTVHEILCKLSLEGDHSTPPSAYGSVKAYTNFDAERDALNIETAIKTKGVDEVTIVNILTNRSNAQRQDIAFSALSGHLETVILGLLKTPAQYDASELKASMKGLGTDEDSLIEIICSRTNQELQEINRVYKEMYKTDLEKDIISDTSGDFRKLMVALAKGRRAEDGSVIDYELIDQDARDLYDAGVKRKGTDVPKWISIMTERSVPHLQKVFDRYKSYSPYDMLESIRKEVKGDLENAFLNLVQCIQNKPLYFADRLYDSMKGKGTRDKVLIRIMVSRSEVDMLKIRSEFKRKYGKSLYYYIQQDTKGDYQKALLYLCGGDDYPYDVPDYA
Take B14: the binding result was “no binding”.

B15: AnxA2 Δ37-66-HA (other)
chain: MSTVHEILCKLSLEGDHSTPPSAYGSVKAYTNFDAEQRQDIAFAYQRRTKKELASALKSALSGHLETVILGLLKTPAQYDASELKASMKGLGTDEDSLIEIICSRTNQELQEINRVYKEMYKTDLEKDIISDTSGDFRKLMVALAKGRRAEDGSVIDYELIDQDARDLYDAGVKRKGTDVPKWISIMTERSVPHLQKVFDRYKSYSPYDMLESIRKEVKGDLENAFLNLVQCIQNKPLYFADRLYDSMKGKGTRDKVLIRIMVSRSEVDMLKIRSEFKRKYGKSLYYYIQQDTKGDYQKALLYLCGGDDYPYDVPDYA
B15: the binding result is “no binding”.
